Consider two molecules from article PMC9119445, “Ustilago maydis telomere protein Pot1 harbors an extra N-terminal OB fold and regulates homology-directed DNA repair factors in a dichotomous and context-dependent manner”.

Data set [1] deals with Ustilago maydis Rad51 (U. maydis) (UniProt Q99133).
Data set [2] has as its target UmPot1 OB12 (OB1-OB2) (Ustilago maydis, UniProt A0A0D1CUA9 351-700). Description: EMSA; 25 mM HEPES-KOH pH 7.5, 5% glycerol, 3 mM MgCl2, 0.1 mM EDTA, 1 mM DTT, 0.5 ug/ul BSA, 1-10 nM probe, 22 C, 15 min; 6% native PAGE in 1x TBE. The note with it: protein: recombinant; tags: C-terminal FLAG; His6-SUMO removed by ULP1; label: 5'-32P. On the technique in general: A gel shift assay detects complexes by their altered migration in electrophoresis.

The target in data set [3] is UmPot1 OB3 (Ustilago maydis, UniProt A0A0D1CUA9 701-1050). The data set is described as above. The note with it: protein: recombinant; tags: C-terminal FLAG; His6-SUMO removed by ULP1; label: 5'-32P.
Data set [4] has as its target UmPot1 N-terminal fragment (OB-N) (Ustilago maydis, UniProt A0A0D1CUA9 1-350). The description is as above. The note with it: protein: recombinant; tags: C-terminal FLAG; His6-SUMO removed by ULP1; label: 5'-32P.

Ustilago maydis Rad51 (U. maydis), sequence (Q99133 whole entry): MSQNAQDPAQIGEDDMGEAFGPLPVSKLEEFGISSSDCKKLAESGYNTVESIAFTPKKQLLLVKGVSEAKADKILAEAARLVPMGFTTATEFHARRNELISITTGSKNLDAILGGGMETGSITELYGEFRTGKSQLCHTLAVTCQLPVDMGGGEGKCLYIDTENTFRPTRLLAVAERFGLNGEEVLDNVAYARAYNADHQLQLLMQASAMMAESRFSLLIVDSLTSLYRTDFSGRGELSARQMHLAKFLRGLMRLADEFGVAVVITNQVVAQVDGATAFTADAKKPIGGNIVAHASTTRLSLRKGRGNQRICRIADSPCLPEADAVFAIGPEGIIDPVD

With “Ustilago maydis Pot1 with a C-terminal FLAG tag (Pot1-FLAG) (natural protein)”, in data set [1], the strand exchange activity of Rad51 (oligonucleotide-based assay, 70-mer ssDNA and labeled 39-mer dsDNA), stimulation by Pot1 was determined as 2 fold.
As for TTAGGGTTAGGGTTAGGGTTAGGG (ssDNA) [TTAGGG4 (G4)], the binding result in data set [2] is recorded as “binds”; in data set [3], “no binding”; in data set [4] it was “no binding”.
